These results are taken from patent US20210024639A1 (AGOMAB THERAPEUTICS, published 2021).

The target in experiment [1] is T1, human MET extracellular domain (ECD) (human, UniProt P08581 25-932).
T1 construct: range 1-932; recombinant ECD; also called hMET; human MET ECD
Description: ELISA, periplasmic Fab on MET ECD. The method, then: (§1) Fab-expressing phages from the libraries described above were produced according to standard phage display protocols. For selection, phages were first adsorbed to immobilized recombinant human MET ECD, washed, and then eluted using trypsin. After two cycles of selection with human MET ECD, two other cycles were performed in the same fashion using mouse MET ECD. In parallel, we also selected phages alternating a human MET ECD cycle with a mouse MET ECD cycle, for a total of four cycles. Phages selected by the two approaches were pooled together and then used to infect TG1 E. coli. Individual colonies were isolated and secretion of Fabs was induced using IPTG (Fermentas). The Fab-containing periplasmic fraction of bacteria was collected and tested for its ability to bind human and mouse MET ECD by Surface Plasmon Resonance (SPR). Human or mouse MET ECD was immobilized on a CM-5 chip using amine coupling in sodium acetate buffer (GE Healthcare). The Fab-containing periplasmic extracts were loaded into a BIACORE 3000 apparatus (GE Healthcare) with a flow rate of 30 μl/min. The Fab off-rates (koff) were measured over a two minute period. Binding of Fabs to human and mouse MET was further characterized by ELISA using MET ECD in solid phase and periplasmic crude extract in solution.
(§2) TABLE 7 Fabs binding to both human MET (hMET) and mouse MET (mMET). Fabs are grouped in families based on their VH CDR3 sequence. Binding of Fabs to human and mouse MET ECD was determined by Surface Plasmon Resonance (SPR) and by ELISA. SPR values represent the koff (s⁻¹). ELISA values represent the Optical Density (OD) at 450 nm (AU, arbitrary units). Both SPR and ELISA were performed using crude periplasmic extracts. Fab concentration in the extract was not determined. Values are the mean of three independent measurements.

The target in experiment [2] is T2, mouse MET extracellular domain (ECD) (mouse, UniProt P16056 25-931).
T2 construct: range 1-931; recombinant ECD; also called mMET; mouse MET ECD
T2 sequence (P16056 25-931 limits assumed, form in doubt): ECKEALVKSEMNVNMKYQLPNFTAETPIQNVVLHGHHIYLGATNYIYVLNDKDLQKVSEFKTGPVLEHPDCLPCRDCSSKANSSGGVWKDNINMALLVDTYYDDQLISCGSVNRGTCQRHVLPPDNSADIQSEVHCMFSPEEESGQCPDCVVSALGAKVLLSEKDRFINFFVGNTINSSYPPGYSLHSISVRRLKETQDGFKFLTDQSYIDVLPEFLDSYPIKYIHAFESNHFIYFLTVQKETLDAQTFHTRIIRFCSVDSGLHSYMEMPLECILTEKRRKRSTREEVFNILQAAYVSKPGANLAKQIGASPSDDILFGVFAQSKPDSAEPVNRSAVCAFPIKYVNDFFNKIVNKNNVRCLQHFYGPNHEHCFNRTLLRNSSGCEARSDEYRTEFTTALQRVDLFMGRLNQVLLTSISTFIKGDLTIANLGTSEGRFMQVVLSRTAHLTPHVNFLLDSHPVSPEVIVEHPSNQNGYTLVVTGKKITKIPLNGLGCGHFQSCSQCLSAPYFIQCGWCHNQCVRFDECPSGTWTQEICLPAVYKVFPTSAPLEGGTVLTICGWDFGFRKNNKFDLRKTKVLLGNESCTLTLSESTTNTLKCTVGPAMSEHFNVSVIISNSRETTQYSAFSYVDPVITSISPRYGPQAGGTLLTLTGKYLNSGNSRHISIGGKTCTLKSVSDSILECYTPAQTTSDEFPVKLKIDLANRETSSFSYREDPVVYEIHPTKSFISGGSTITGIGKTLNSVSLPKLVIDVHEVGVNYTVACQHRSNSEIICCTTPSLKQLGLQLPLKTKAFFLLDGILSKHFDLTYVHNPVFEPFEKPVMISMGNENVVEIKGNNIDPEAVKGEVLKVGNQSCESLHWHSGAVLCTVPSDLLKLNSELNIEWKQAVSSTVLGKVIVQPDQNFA
Put plainly: ELISA, periplasmic Fab on MET ECD. Here is the method: as §1, §2
Background: ELISA stands for enzyme-linked immunosorbent assay.

T1 sequence (P08581 25-932 limits assumed, form in doubt): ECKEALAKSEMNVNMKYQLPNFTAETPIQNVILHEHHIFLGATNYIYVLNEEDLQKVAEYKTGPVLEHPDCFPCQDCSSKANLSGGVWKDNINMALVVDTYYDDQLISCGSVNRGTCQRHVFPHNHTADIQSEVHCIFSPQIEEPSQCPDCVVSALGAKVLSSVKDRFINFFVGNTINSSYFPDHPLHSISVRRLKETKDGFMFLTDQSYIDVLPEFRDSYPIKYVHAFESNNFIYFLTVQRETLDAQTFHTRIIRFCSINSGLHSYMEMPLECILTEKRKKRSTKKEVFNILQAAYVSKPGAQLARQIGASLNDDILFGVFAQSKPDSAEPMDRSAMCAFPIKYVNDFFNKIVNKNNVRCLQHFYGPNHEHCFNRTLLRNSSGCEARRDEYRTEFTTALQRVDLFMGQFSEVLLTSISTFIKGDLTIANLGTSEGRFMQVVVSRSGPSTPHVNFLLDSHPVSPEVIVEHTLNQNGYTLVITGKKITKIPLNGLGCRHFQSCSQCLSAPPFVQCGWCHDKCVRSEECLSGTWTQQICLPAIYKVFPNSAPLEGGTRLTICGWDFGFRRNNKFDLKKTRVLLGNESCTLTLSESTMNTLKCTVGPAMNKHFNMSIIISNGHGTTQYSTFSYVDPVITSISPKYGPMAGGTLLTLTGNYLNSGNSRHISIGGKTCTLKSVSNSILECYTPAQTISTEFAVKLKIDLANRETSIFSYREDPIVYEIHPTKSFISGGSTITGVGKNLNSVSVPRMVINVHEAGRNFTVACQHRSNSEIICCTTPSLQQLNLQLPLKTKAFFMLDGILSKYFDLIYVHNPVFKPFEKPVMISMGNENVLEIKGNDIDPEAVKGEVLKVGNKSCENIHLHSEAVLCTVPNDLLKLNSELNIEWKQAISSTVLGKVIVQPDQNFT

B1: Fab 71D6 (Fab, V domains shown)
VH: ELQLVESGGGLVQPGGSLRLSCAASGFTFSSYGMSWVRQAPGKGLEWVSAINSYGGSTSYADSVKGRFTISRDNAKNTLYLQMNSLKPEDTAVYYCAKEVRADLSRYNDYESYDYWGQGTQVTVSS
VL: QPVLNQPSALSVTLGQTAKITCQGGSLGARYAHWYQQKPGQAPVLVIYDDDSRPSGIPERFSGSSSGGTATLTISGAQAEDEGDYYCQSADSSGSVFGGGTHLTVL
notes: llama Fab (VH-CH1, lambda VL-CL) with MYC flag, crude periplasmic extract
For B1, the “ELISA OD450” value in experiment [1] was 3.26 AU; in experiment [2], 3.07 AU.

B2: Fab 71C3 (Fab, V domains shown)
VH: QLQLVESGGGLVQPGGSLRLSCAASGFTFSSHAMSWVRQAPGKGLEWVSAINSGGGSTSYADSVKGRFTISRDNAKNTLYLQMNSLKPEDTAVYYCAKELRFDLARYTDYEAWDYWGQGTQVTVSS
VL: SYELTQPSALSVTLGQTAKITCQGGSLGSSYAHWYQQKPGQAPVLVIYDDDSRPSGIPERFSGSSSGGTATLTISGAQAEDEGDYYCQSADSSGNAAVFGGGTHLTVL
notes: as for B1
Consider B2, for which the “ELISA OD450” value was 1.65 AU in experiment [1] and 1.64 AU in experiment [2].

B3: Fab 71D4 (Fab, V domains shown)
VH: ELQLVESGGGLVQPGGSLRLSCAASGFTFSGYGMSWVRQAPGKGLEWVSDINSGGGSTSYADSVKGRFTISRDNAKNTLYLQMNSLKPEDTAVYYCAKDMRLYLARYNDYEAWDYWGQGTQVTVSS
VL: SSALTQPSALSVTLGQTAKITCQGGSLGSSYAHWYQQKPGQAPVLVIYDDDSRPSGIPERFSGSSSGGTATLTISGAQAEDEGDYYCQSADSSGNAAVFGGGTHLTVL
notes: as for B1
Consider B3, for which the “ELISA OD450” value in experiment [1] stood at 0.311 AU; in experiment [2], 0.307 AU.

B4: Fab 71A3 (Fab, V domains shown)
VH: EVQLVESGGGLVQPGGSLRLSCAASGFSFKDYDITWVRQAPGKGLEWVSTITSRSGSTSYVDSVKGRFTISGDNAKNTLYLQMNSLKPEDTAVYYCAKVYATTWDVGPLGYGMDYWGKGTLVTVSS
VL: SYELTQPSALSVTLGQTAKITCQGGSLGSSYAHWYQQKPGQAPVLVIYDDDSRPSGIPERFSGSSSGGTATLTISGAQAEDEGDYYCQSADSSGNAAVFGGGTHLTVL
notes: as for B1
As for B4, the “ELISA OD450” value in experiment [1] is 0.581 AU; in experiment [2], 0.524 AU.
